For one test, the system named is DOHH2 cells. The test is described as follows: BTK, SYK and ERK activation in anti-IgG-stimulated DOHH2 cells. It is filed as cell-based, human. The protocol: (§1) FIG. 7A-H. The solHVEM (either Leu39-Va1202 or Pro37-Va1202) protein restores tumor suppressive effects of HVEM.
FIG. 14A-E. Effect of solHVEM (either Leu39-Va1202 or Pro37-Va1202) on murine and human FL B cells. FIG. 14A and FIG. 14B, Quantification of pSYK levels in DOHH2 lymphoma cells that were stimulated with anti-IgG in the presence or absence of Pro37-Va1202 solHVEM (5 μg/ml) (* indicated p<0.01); representative FACS measurement in (FIG. 14B) FIG. 14C, FACS analysis of BTLA expression in a panel of lymphoma lines including murine myc/bc12 lymphomas and human lines (DOHH2, Su-DHL6, Granta, Ly10); FIG. 14D, representative pictures of tumors from mice; FIG. 14E, tumor weight of mouse tumors (n=3, p<0.01).
FIG. 15A-B. sTNFRSF14 opposes B cell receptor signaling in lymphoma B cells by decreasing P-BTK. A B-cell lymphoma cell line (DOHH2) was pre-treated for one hour with the soluble ectodomain of TNFRSF14 (sTNFRSF14) Pro 37-Val 202 (5 ug/ml) or the BTK inhibitor Ibrutinib (10nmM) and then stimulated for 5 mins at 37° C. with anti-IgG molecule. The cells were subsequently fixed and permeabilized and probed for pBTK expression using phospo-flow antibodies and analyzed on BD Fortessa. FIG. 15A, Representative FACS plots. FIG. 15B, Quantification of mean fluorescence intensity of phospho-BTK after treatment with vehicle or drug.
FIG. 16A-B. sTNFRSF14 opposes B-cell receptor signaling in lymphoma B cells by decreasing P-SYK. A B-cell lymphoma cell line (DOHH2) was pre-treated for one hour with the soluble ectodomain of TNFRSF14 (sTNFRSF14) Pro37-Val 202 (5 ug/ml) or the BTK inhibitor Ibrutinib (10nmM) and then stimulated for 5 mins at 37° C. with anti-IgG molecule. The cells were subsequently fixed and permeabilized and probed for pSYK expression using phospo-flow antibodies and analyzed on a BD Fortessa. FIG. 16A, Representative FACS plots. FIG. 16B, Quantification of mean fluorescence intentisty of phospho-SYK after treatment with vehicle or drug.
(§2) Building on these findings, experiments were performed to test whether solHVEM would have any single agent activity against lymphomas. First, the expression of the BTLA receptor was characterized across a panel of human and mouse lymphoma (mostly DLBCL) cell lines. […] Next, experiments were performed to test if solHVEM had any effect on established BTLA^hi lymphomas in vivo. Briefly, aggressive MYC/BCL2 double positive murine lymphoma cells that express BTLA (BTLA^hi) were transplanted into the flanks of J:Nu nude mice and mice were treated with 20 μg of solHVEM or vehicle (PBS) every three days for a total four times once the engrafted tumors reached a volume of ˜50 mm3. […] Similar results were obtained both in vitro and in vivo with a different soluble HVEM molecule consisting of the extracellular region from amino acids Pro37 to Va1202 (SEQ ID NO. 6).
For phospho-BTK, phospho-Syk staining, cells were pretreated for 60 min with either 5 μg/mL of sHVEM (R&D Systems) or 10 ng/mL Ibrutinib (ChemieTek PCI-32765) at 37° C. Cells were fixed by adding equal volume of formaldehyde directly to the cells. Cells were incubated for 10 minutes at room temperature, washed 2× in PBS and the residual cells were permeabilized in 1 mL of ice cold methanol (100%) for 30 min on ice. Cells were then washed twice and stained with the phospho-BTK (Bd Biosciences clone N35-88) and phospho-Syk (Bd Biosciences clone 17 A/P-Zap70) and analyzed on BD LSRFortessa. […]

Test [1] relates to human and mouse lymphoma cell lines. Nature of the test: Cell proliferation in panel of BTLAhi and BTLAlo lymphoma cell lines. The format is cell-based. The protocol:
as §1
FIG. 17. sTNFRSF14 inhibits the growth of lymphoma cell lines in vitro. Three lymphoma cell lines (Myc-Bc12, LY-10, Granta) were plated at 1×10^5 cells/ml and were treated with sTNFRSF14 (5 ug/ml) or vehicle each day for 72 hours. After 72 hours cells were counted using a hemocytometer. Each bar represents the average of three independent experiments.
as §2
Lymphoma cell lines DoHH2, Ly-10, Granta, Su-DHL-6 were maintained in RPMI 1640 with 10% fetal bovine serum, 1% L-Glutamine and 1% penicillin/streptomycin. Mouse lymphoma cell line myc-bcl2 was maintained in IMDM-DMEM (50:50) with 10% fetal bovine serum, 1% L-Glutamine, and 1% penicillin/streptomycin. Cell lines were seeded at 5×10^5/mL and were treated with 5 m/m1 of sHVEM. After 24 hours cell number was counted using hemocytometer for a total of 72 hours after treatment.

[2] abbreviates: DOHH2 (BTLAhi, HVEM deleted), 10 μg/ml.

With “solHVEM: Leu39-Val202 soluble HVEM ectodomain polypeptide of SEQ ID NO. 8”, in the test with DOHH2 cells (setting [2]), the ERK activation result was “readily blocked” and the SYK activation result is “readily blocked”. Besides, the “growth of BTLAhi lymphoma cells” value in test [1] (BTLAhi lines (DOHH2, SU-DHL6, murine MYC/BCL2), 5 μg/ml) is “significant growth inhibition”. Also, in test [1] (BTLAlo lines (Granta, Su-DHL10), 5 μg/ml), the “growth of BTLAlo lymphoma cells” value is given as “not affected”.

B1: sTNFRSF14: Pro37-Val202 soluble HVEM ectodomain polypeptide of SEQ ID NO. 6 (protein, listed as Homo sapiens)
chain: PALPSCKEDEYPVGSECCPKCSPGYRVKEACGELTGTVCEPCPPGTYIAHLNGLSKCLQCQMCDPAMGLRASRNCSRTENAVCGCSPGHFCIVQDGDHCAACRAYATSSPGQRVQKGGTESQDTLCQNCPPGTFSPNGTLEECQHQTKCSWLVTKAGAGTSSSHWV
On to B1, for which the BTK activation entry with DOHH2 cells (setting [2]) is “readily blocked”. Also, the “activation (phosphorylation) of BTK” value with DOHH2 cells (DOHH2, one hour pre-incubation, 5 ug/ml, anti-IgG) is on record as “effectively blocked”. For the same molecule, in the test with DOHH2 cells (DOHH2, one hour pre-treatment, 5 ug/ml, anti-IgG), the “levels of phosphorylated SYK” value is “inhibited”. Also, the “cell growth in cell lines that did not express BTLA” value in test [1] (5 ug, three days) is “did not inhibit cell growth”. The “cell growth in cell lines with highest BTLA levels” value in test [1] (Myc-Bc12 cell line, 5 ug, three days) is listed as “largest effect on growth”.

The values are drawn from patent US11261232B2, “TNFRSF14 / HVEM proteins and methods of use thereof” (MEMORIAL SLOAN KETTERING CANCER CENTER, priority 2015, dated 2022).
